Source: PMC9482650, “Quantitative fragmentomics allow affinity mapping of interactomes” (Nature Communications, 2022)

Key:
Assay in all cases: holdup assay
Parameters in all cases: key: below the threshold = too weak to quantify, mostly under pKd 3.1 to 4
Inadl_2, Q8NI35 = target: Inadl_2, Q8NI35
DFNB31_3, Q9P202 = target: T1, DFNB31_3, Q9P202
T1 sequence (Q9P202 811-907, limits assumed, looked up): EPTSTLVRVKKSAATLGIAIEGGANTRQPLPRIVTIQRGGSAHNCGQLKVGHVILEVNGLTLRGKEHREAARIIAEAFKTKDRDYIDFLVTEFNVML

HTRA3, P83110 = target: T2, HTRA3, P83110
T2 sequence (P83110 354-453, limits assumed, looked up): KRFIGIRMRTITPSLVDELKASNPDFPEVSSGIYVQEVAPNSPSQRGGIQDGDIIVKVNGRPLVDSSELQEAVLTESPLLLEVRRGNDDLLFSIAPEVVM

GOPC, Q9HD26 = target: GOPC, Q9HD26
GRIP1_4, Q9Y3R0 = target: T3, GRIP1_4, Q9Y3R0
T3 sequence (Q9Y3R0 467-571, limits assumed, looked up): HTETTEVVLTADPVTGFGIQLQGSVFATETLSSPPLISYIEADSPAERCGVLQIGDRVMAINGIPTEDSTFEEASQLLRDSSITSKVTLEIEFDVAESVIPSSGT

GRASP, Q7Z6J2 = target: GRASP, Q7Z6J2
DLG1_3, Q12959 = target: DLG1_3, Q12959
GRIP1_7, Q9Y3R0 = target: T4, GRIP1_7, Q9Y3R0
T4 sequence (Q9Y3R0 999-1096, limits assumed, looked up): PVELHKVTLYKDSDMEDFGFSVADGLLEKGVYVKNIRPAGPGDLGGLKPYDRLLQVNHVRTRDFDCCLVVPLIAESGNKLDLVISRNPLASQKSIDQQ

Inadl_6, Q8NI35 = target: Inadl_6, Q8NI35
SNTA1, Q13424 = target: T5, SNTA1, Q13424
T5 sequence (Q13424 82-180, limits assumed, looked up): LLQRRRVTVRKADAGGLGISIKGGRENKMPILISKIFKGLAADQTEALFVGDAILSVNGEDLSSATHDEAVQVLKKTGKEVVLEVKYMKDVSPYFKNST

DLG2_3, Q15700 = target: DLG2_3, Q15700
LRRC7, Q96NW7 = target: T6, LRRC7, Q96NW7
T6 sequence (Q96NW7 1440-1537, limits assumed, looked up): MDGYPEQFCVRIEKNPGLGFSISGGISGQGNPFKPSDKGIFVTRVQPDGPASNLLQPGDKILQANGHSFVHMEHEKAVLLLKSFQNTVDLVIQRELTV

TIAM2, Q8IVF5 = target: T7, TIAM2, Q8IVF5
T7 sequence (Q8IVF5 885-986, limits assumed, looked up): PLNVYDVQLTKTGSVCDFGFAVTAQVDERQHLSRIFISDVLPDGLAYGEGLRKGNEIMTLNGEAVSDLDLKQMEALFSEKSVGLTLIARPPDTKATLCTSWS

GRIP2_6, Q9C0E4 = target: GRIP2_6, Q9C0E4
Inadl_10, Q8NI35 = target: Inadl_10, Q8NI35
GRIP2_4, Q9C0E4 = target: GRIP2_4, Q9C0E4
IL16_3, Q14005 = target: IL16_3, Q14005
CARD11, Q9BXL7 = target: T8, CARD11, Q9BXL7
T8 sequence (Q9BXL7 662-765, limits assumed, looked up): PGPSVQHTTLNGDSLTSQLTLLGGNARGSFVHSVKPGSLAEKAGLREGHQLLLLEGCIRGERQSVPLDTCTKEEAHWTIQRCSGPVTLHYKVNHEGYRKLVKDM

SNTB1, Q13884 = target: T9, SNTB1, Q13884
T9 sequence (Q13884 107-205, limits assumed, looked up): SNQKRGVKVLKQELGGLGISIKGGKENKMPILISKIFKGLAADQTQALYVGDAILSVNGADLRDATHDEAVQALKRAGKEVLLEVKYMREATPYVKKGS

SNX27, Q96L92 = target: SNX27, Q96L92
FRMPD2_3, Q68DX3 = target: FRMPD2_3, Q68DX3
MAGI3_2, Q5TCQ9 = target: MAGI3_2, Q5TCQ9
RHPN1, Q8TCX5 = target: T10, RHPN1, Q8TCX5
T10 sequence (Q8TCX5 508-602, limits assumed, looked up): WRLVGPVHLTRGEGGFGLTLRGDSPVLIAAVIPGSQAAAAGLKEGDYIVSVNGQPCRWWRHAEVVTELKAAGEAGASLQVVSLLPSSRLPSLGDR

SCRIB_1, Q14160 = target: SCRIB_1, Q14160
NHERF3_3, Q5T2W1 = target: T11, NHERF3_3, Q5T2W1
T11 sequence (Q5T2W1 238-333, limits assumed, looked up): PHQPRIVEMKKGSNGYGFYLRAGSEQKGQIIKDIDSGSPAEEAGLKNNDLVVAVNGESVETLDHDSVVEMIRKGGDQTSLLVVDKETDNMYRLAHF

GORASP1, Q9BQQ3 = target: GORASP1, Q9BQQ3
[1] = plain residues with an end cap or a label only (N-terminal biotin on a linker: ado-ado)
[2] = plain residues with an end cap or a label only (N-terminal biotin on a linker: ahx)

SCRIB_1, Q14160, sequence (Q14160 718-814): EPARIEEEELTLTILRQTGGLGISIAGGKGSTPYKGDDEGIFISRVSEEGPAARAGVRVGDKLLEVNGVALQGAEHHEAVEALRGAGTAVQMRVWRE
Inadl_2, Q8NI35, sequence (Q8NI35 238-335): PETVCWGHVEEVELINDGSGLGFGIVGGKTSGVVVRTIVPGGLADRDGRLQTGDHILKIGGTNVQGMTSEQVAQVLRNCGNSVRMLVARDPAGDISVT
GORASP1, Q9BQQ3, sequence (Q9BQQ3 1-208): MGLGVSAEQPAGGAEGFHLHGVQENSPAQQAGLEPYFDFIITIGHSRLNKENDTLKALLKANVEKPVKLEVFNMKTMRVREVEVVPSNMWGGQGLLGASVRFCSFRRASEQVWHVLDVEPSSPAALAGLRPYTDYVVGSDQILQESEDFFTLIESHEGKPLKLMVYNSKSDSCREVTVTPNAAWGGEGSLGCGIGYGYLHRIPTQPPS
IL16_3, Q14005, sequence (Q14005 1107-1207): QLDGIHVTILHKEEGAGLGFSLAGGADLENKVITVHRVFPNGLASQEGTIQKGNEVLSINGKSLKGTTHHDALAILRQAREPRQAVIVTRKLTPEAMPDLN
Inadl_10, Q8NI35, sequence (Q8NI35 1673-1763): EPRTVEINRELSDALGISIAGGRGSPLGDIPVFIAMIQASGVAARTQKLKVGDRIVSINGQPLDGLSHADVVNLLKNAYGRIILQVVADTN
DLG1_3, Q12959, sequence (Q12959 457-571): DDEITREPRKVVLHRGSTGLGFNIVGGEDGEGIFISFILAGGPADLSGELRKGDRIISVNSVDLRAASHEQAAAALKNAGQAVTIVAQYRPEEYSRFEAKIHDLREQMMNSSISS
GRASP, Q7Z6J2, sequence (Q7Z6J2 96-193): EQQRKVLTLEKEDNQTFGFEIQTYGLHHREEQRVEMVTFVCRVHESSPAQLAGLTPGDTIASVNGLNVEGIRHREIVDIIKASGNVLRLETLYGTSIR
MAGI3_2, Q5TCQ9, sequence (Q5TCQ9 398-503): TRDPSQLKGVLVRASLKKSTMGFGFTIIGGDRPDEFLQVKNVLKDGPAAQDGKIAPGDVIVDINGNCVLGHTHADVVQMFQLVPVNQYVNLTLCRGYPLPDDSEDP
FRMPD2_3, Q68DX3, sequence (Q68DX3 1073-1166): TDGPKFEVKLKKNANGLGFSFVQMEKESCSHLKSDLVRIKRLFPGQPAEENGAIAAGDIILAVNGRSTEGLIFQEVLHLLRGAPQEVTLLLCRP
GRIP2_4, Q9C0E4, sequence (Q9C0E4 446-548): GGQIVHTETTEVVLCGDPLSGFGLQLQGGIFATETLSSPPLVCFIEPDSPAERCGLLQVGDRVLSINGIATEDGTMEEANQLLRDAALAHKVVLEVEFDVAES
GRIP2_6, Q9C0E4, sequence (Q9C0E4 648-740): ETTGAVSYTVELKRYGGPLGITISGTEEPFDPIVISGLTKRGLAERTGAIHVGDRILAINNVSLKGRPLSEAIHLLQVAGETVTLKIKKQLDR
Inadl_6, Q8NI35, sequence (Q8NI35 1058-1167): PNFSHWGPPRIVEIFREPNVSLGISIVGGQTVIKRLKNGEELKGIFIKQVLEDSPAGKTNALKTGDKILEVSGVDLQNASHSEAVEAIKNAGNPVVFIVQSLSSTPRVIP

RSSGGDDFWF [KCNV1, Q6PIU1]
pKd (Inadl_2, Q8NI35; [1]): 4.28
pKd (DFNB31_3, Q9P202; [1]): 4.02
pKd (HTRA3, P83110; [1]): 4.37
pKd (GOPC, Q9HD26; [1]): below the threshold
pKd (GRIP1_4, Q9Y3R0; [1]): below the threshold
pKd (GRASP, Q7Z6J2; [1]): below the threshold
pKd (DLG1_3, Q12959; [1]): 3.57
pKd (GRIP1_7, Q9Y3R0; [1]): below the threshold
pKd (Inadl_6, Q8NI35; [1]): below the threshold
pKd (SNTA1, Q13424; [1]): below the threshold
pKd (DLG2_3, Q15700; [1]): 3.6
pKd (LRRC7, Q96NW7; [1]): below the threshold
pKd (TIAM2, Q8IVF5; [1]): 4.47
pKd (GRIP2_6, Q9C0E4; [1]): below the threshold
pKd (Inadl_10, Q8NI35; [1]): below the threshold
pKd (GRIP2_4, Q9C0E4; [1]): below the threshold
pKd (IL16_3, Q14005; [1]): below the threshold
pKd (CARD11, Q9BXL7; [1]): below the threshold
pKd (SNTB1, Q13884; [1]): below the threshold
pKd (SNX27, Q96L92; [1]): 4.15
pKd (FRMPD2_3, Q68DX3; [1]): below the threshold
pKd (MAGI3_2, Q5TCQ9; [1]): below the threshold
pKd (RHPN1, Q8TCX5; [1]): below the threshold
pKd (SCRIB_1, Q14160; [1]): below the threshold
pKd (NHERF3_3, Q5T2W1; [1]): below the threshold
pKd (GORASP1, Q9BQQ3; [1]): below the threshold

DGVNEKVSCV [HTR2A, P28223]
pKd (Inadl_2, Q8NI35; [1]): below the threshold
pKd (DFNB31_3, Q9P202; [1]): 3.88
pKd (HTRA3, P83110; [1]): 3.94
pKd (GOPC, Q9HD26; [1]): below the threshold
pKd (GRIP1_4, Q9Y3R0; [1]): below the threshold
pKd (GRASP, Q7Z6J2; [1]): 4.21
pKd (DLG1_3, Q12959; [1]): below the threshold
pKd (GRIP1_7, Q9Y3R0; [1]): below the threshold
pKd (Inadl_6, Q8NI35; [1]): 3.57
pKd (SNTA1, Q13424; [1]): 4.66
pKd (DLG2_3, Q15700; [1]): 3.8
pKd (LRRC7, Q96NW7; [1]): below the threshold
pKd (TIAM2, Q8IVF5; [1]): 4.01
pKd (GRIP2_6, Q9C0E4; [1]): below the threshold
pKd (Inadl_10, Q8NI35; [1]): below the threshold
pKd (GRIP2_4, Q9C0E4; [1]): below the threshold
pKd (IL16_3, Q14005; [1]): below the threshold
pKd (CARD11, Q9BXL7; [1]): below the threshold
pKd (SNTB1, Q13884; [1]): 4.72
pKd (SNX27, Q96L92; [1]): 5.15
pKd (FRMPD2_3, Q68DX3; [1]): 3.53
pKd (MAGI3_2, Q5TCQ9; [1]): 4.47
pKd (RHPN1, Q8TCX5; [1]): 4.66
pKd (SCRIB_1, Q14160; [1]): below the threshold
pKd (NHERF3_3, Q5T2W1; [1]): below the threshold
pKd (GORASP1, Q9BQQ3; [1]): below the threshold

TESNLQTSSC [CGN, Q9P2M7]
pKd (Inadl_2, Q8NI35; [2]): below the threshold
pKd (DFNB31_3, Q9P202; [2]): below the threshold
pKd (HTRA3, P83110; [2]): below the threshold
pKd (GOPC, Q9HD26; [2]): below the threshold
pKd (GRIP1_4, Q9Y3R0; [2]): below the threshold
pKd (GRASP, Q7Z6J2; [2]): 3.95
pKd (DLG1_3, Q12959; [2]): below the threshold
pKd (GRIP1_7, Q9Y3R0; [2]): below the threshold
pKd (Inadl_6, Q8NI35; [2]): below the threshold
pKd (SNTA1, Q13424; [2]): below the threshold
pKd (DLG2_3, Q15700; [2]): below the threshold
pKd (LRRC7, Q96NW7; [2]): below the threshold
pKd (TIAM2, Q8IVF5; [2]): below the threshold
pKd (GRIP2_6, Q9C0E4; [2]): below the threshold
pKd (Inadl_10, Q8NI35; [2]): 3.6
pKd (GRIP2_4, Q9C0E4; [2]): below the threshold
pKd (IL16_3, Q14005; [2]): 3.53
pKd (CARD11, Q9BXL7; [2]): below the threshold
pKd (SNTB1, Q13884; [2]): below the threshold
pKd (SNX27, Q96L92; [2]): 4.65
pKd (FRMPD2_3, Q68DX3; [2]): below the threshold
pKd (MAGI3_2, Q5TCQ9; [2]): below the threshold
pKd (RHPN1, Q8TCX5; [2]): 4.44
pKd (SCRIB_1, Q14160; [2]): below the threshold
pKd (NHERF3_3, Q5T2W1; [2]): below the threshold
pKd (GORASP1, Q9BQQ3; [2]): below the threshold

APSRKLNTEI [TIAM1, Q13009]
pKd (Inadl_2, Q8NI35; [2]): below the threshold
pKd (DFNB31_3, Q9P202; [2]): below the threshold
pKd (HTRA3, P83110; [2]): below the threshold
pKd (GOPC, Q9HD26; [2]): below the threshold
pKd (GRIP1_4, Q9Y3R0; [2]): below the threshold
pKd (GRASP, Q7Z6J2; [2]): below the threshold
pKd (DLG1_3, Q12959; [2]): below the threshold
pKd (GRIP1_7, Q9Y3R0; [2]): below the threshold
pKd (Inadl_6, Q8NI35; [2]): below the threshold
pKd (SNTA1, Q13424; [2]): below the threshold
pKd (DLG2_3, Q15700; [2]): 3.66
pKd (LRRC7, Q96NW7; [2]): below the threshold
pKd (TIAM2, Q8IVF5; [2]): below the threshold
pKd (GRIP2_6, Q9C0E4; [2]): below the threshold
pKd (Inadl_10, Q8NI35; [2]): below the threshold
pKd (GRIP2_4, Q9C0E4; [2]): below the threshold
pKd (IL16_3, Q14005; [2]): below the threshold
pKd (CARD11, Q9BXL7; [2]): below the threshold
pKd (SNTB1, Q13884; [2]): below the threshold
pKd (SNX27, Q96L92; [2]): below the threshold
pKd (FRMPD2_3, Q68DX3; [2]): below the threshold
pKd (MAGI3_2, Q5TCQ9; [2]): below the threshold
pKd (RHPN1, Q8TCX5; [2]): 3.88
pKd (SCRIB_1, Q14160; [2]): below the threshold
pKd (NHERF3_3, Q5T2W1; [2]): below the threshold
pKd (GORASP1, Q9BQQ3; [2]): below the threshold

EPQYQPGENL [SRC, P12931]
pKd (Inadl_2, Q8NI35; [1]): below the threshold
pKd (DFNB31_3, Q9P202; [1]): below the threshold
pKd (HTRA3, P83110; [1]): below the threshold
pKd (GOPC, Q9HD26; [1]): below the threshold
pKd (GRIP1_4, Q9Y3R0; [1]): below the threshold
pKd (GRASP, Q7Z6J2; [1]): below the threshold
pKd (DLG1_3, Q12959; [1]): below the threshold
pKd (GRIP1_7, Q9Y3R0; [1]): below the threshold
pKd (Inadl_6, Q8NI35; [1]): below the threshold
pKd (SNTA1, Q13424; [1]): below the threshold
pKd (DLG2_3, Q15700; [1]): below the threshold
pKd (LRRC7, Q96NW7; [1]): below the threshold
pKd (TIAM2, Q8IVF5; [1]): below the threshold
pKd (GRIP2_6, Q9C0E4; [1]): below the threshold
pKd (Inadl_10, Q8NI35; [1]): below the threshold
pKd (GRIP2_4, Q9C0E4; [1]): below the threshold
pKd (IL16_3, Q14005; [1]): below the threshold
pKd (CARD11, Q9BXL7; [1]): below the threshold
pKd (SNTB1, Q13884; [1]): 3.58
pKd (SNX27, Q96L92; [1]): 3.79
pKd (FRMPD2_3, Q68DX3; [1]): below the threshold
pKd (MAGI3_2, Q5TCQ9; [1]): below the threshold
pKd (RHPN1, Q8TCX5; [1]): below the threshold
pKd (SCRIB_1, Q14160; [1]): 3.49
pKd (NHERF3_3, Q5T2W1; [1]): below the threshold
pKd (GORASP1, Q9BQQ3; [1]): below the threshold
